# Test results: the supplement of paper PMC9732359
# ± gives the uncertainty stated by the source.
# Test: protein stability index of a GFP-peptide fusion (yeast GPS) (PSI 1-4); higher = more stable; sorted into four equal gates, so the index is relative within each strain
# In short: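 The protein stability index combines read frequencies across sorting gates, each weighted by its gate number and then summed. To obtain those frequencies, a pooled yeast library of GFP fusions to tiled 17-residue yeast protein peptides, on a plasmid also expressing Cherry, was grown to mid-log phase in leucine-free medium. The cells were sorted into four equal gates by GFP/Cherry ratio before plasmid amplification by PCR and Illumina sequencing.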
Sequence,protein stability index (doa10∆),protein stability index (pdr5∆),protein stability index (san1∆),protein stability index (ubr1∆)
DMAKLKKMMNTSDSEST [SWI3],1.81 ± 0.059,2.27 ± 0.05,1.94 ± 0.073,1.91 ± 0.036
DEFPSELSDSDRQIINE [SIR4],3.53 ± 0.27,3.24 ± 0.16,,2.89 ± 0.15
SIQPIESNIKMTLEDNN [SSN2],3.12 ± 0.077,3.08 ± 0.075,2.81 ± 0.053,2.97 ± 0.043
LLNILITYGIIKVPTYI [SRB8],1.57 ± 0.083,1.52 ± 0.09,,1.03 ± 0.047
EEEVTDQLEDLREHFKN [QCR6],3.14 ± 0.17,3.06 ± 0.083,3.26 ± 0.09,3.29 ± 0.14
KAKFTSLAVRSLQDRSS [YCS4],2.15 ± 0.042,2.3 ± 0.05,2.13 ± 0.054,2.24 ± 0.036
NSEKYYDEDPYGFEDES [RPB2],3.47 ± 0.18,3.32 ± 0.079,3.27 ± 0.066,3.25 ± 0.13
VAHSSRLANLIDYKLRV [SMB1],3.58 ± 0.15,3.26 ± 0.15,2.5 ± 0.2,3.17 ± 0.066
KLDSKKILPTDIQLKNL [SRP68],2.74 ± 0.1,2.78 ± 0.078,2.79 ± 0.061,2.69 ± 0.059
ELAGGNASLTIEDEDEP [SMC1],3.03 ± 0.08,3.09 ± 0.14,3 ± 0.059,3.16 ± 0.074
ETISNVAKTAPNSNKTH [SNF2],2.96 ± 0.055,3 ± 0.061,2.96 ± 0.035,3.07 ± 0.045
HIRKASSKKSKRLDKVG [LRP1],3.21 ± 0.087,2.78 ± 0.1,2.97 ± 0.061,2.95 ± 0.066
CTEAGLLALRERRMQVT [RPT2],2.17 ± 0.092,2.9 ± 0.15,2.33 ± 0.14,2.7 ± 0.11
ADKNCAKLHRISPKIWC [PUP1],2.09 ± 0.055,2.1 ± 0.061,1.94 ± 0.059,2.14 ± 0.05
FPWLNAIKYRPTSVKLL [POP3],2.1 ± 0.038,2.19 ± 0.046,2.26 ± 0.062,1.96 ± 0.035
SKMLDAASSQVSIVKLD [SNF12],2.89 ± 0.086,2.89 ± 0.11,3.03 ± 0.096,2.95 ± 0.091
ELLKLLNDEYNYPQLTE [YCS4],3.09 ± 0.096,3.11 ± 0.098,3.03 ± 0.059,3.25 ± 0.06
ALAFGYVKSLHKQISAE [SIN4],1.65 ± 0.056,2.21 ± 0.064,1.78 ± 0.11,2.32 ± 0.043
QPPTNVQPTIGQLPQLP [SNF5],3.14 ± 0.055,3.12 ± 0.063,3.09 ± 0.054,3.15 ± 0.043
GLNWLISLHENKLSGIL [ISW2],2.05 ± 0.056,2.06 ± 0.062,2.11 ± 0.082,2.31 ± 0.092
HHAIEEAESLLQFHVAT [RPO21],2.67 ± 0.094,2.89 ± 0.13,2.64 ± 0.11,2.94 ± 0.087
LPQFRSSIQESLLSLVG [ECM29],1.87 ± 0.067,2.04 ± 0.048,1.7 ± 0.1,1.65 ± 0.054
IAPPVAPHDSEATLLTN [SNF5],2.99 ± 0.066,2.82 ± 0.068,2.93 ± 0.043,2.83 ± 0.049
KARTNLHQHVVLKCLKS [RPC34],2.91 ± 0.19,2.64 ± 0.16,2.33 ± 0.14,2.23 ± 0.23
NERLEINQEKPVKLDEN [SIR4],3.19 ± 0.17,3.05 ± 0.12,3.44 ± 0.086,3.3 ± 0.12
MWSVARAGQRGYHSRTS [RPL3],2.86 ± 0.11,3.14 ± 0.091,3.16 ± 0.069,3.11 ± 0.095

Sequence,protein stability index (doa10∆),protein stability index (pdr5∆),protein stability index (san1∆),protein stability index (ubr1∆)
ILNEVFTNPSIVKVFHG [RRP6],1.24 ± 0.083,1.42 ± 0.075,1.2 ± 0.18,1.29 ± 0.05
LQGEVENIAQMKPKAEK [SMC4],3.02 ± 0.15,3.4 ± 0.12,3.19 ± 0.075,3.11 ± 0.075
KKFATVPTGGASSAAAG [RPP2B],3.17 ± 0.13,3.21 ± 0.14,2.89 ± 0.079,3.06 ± 0.067
KPIQNGEIIDISAFTQF [ARP9],3.02 ± 0.098,2.76 ± 0.085,2.64 ± 0.091,2.98 ± 0.061
FVAKLAAQIFGSYNAFE [COR1],1.68 ± 0.043,1.74 ± 0.048,1.63 ± 0.081,2.13 ± 0.046
DDENEPKRKRRLPVSED [YOR098C/NUP1],3.34 ± 0.1,3.28 ± 0.14,3.09 ± 0.087,3.06 ± 0.072
DRAQNSYQPMYQRPMQV [SSN3],1.55 ± 0.047,1.73 ± 0.057,1.55 ± 0.16,2.64 ± 0.041
LGSGSNVDVCVMEIGKD [PUP1],3.59 ± 0.089,3.53 ± 0.087,3.4 ± 0.06,3.51 ± 0.091
SKYGMLLLRCDDRVDKK [POP3],3.34 ± 0.14,3.35 ± 0.087,3.03 ± 0.076,3.09 ± 0.077
EISTSKKNNLEFGTYGK [RPN14],2.6 ± 0.08,2.13 ± 0.061,2.17 ± 0.082,2.04 ± 0.059
DESLKDEATVPNTRDAE [SWI3],3.16 ± 0.074,3.31 ± 0.082,3.19 ± 0.13,3.14 ± 0.077
YIKSATLYSVKSKEDMK [SNU114],3.22 ± 0.17,3.31 ± 0.13,3.18 ± 0.082,3.11 ± 0.087
DEQQREDNNDAVNSIMA [ECM29],3.16 ± 0.1,3.56 ± 0.11,3.07 ± 0.1,3.31 ± 0.074
SAMPAPYMPYYYYYHPM [DSN1],2.4 ± 0.058,2.87 ± 0.056,2.74 ± 0.049,2.84 ± 0.042
KLIAAAEDGSRSTKDMI [SNF6],3.54 ± 0.15,3.69 ± 0.23,3.44 ± 0.14,3.54 ± 0.087
MSTDVAAAQAQSKIDLT [SEM1],2.91 ± 0.079,2.82 ± 0.095,2.98 ± 0.079,2.88 ± 0.083
PAHTKYMLIEEAASSNK [ITC1],3.05 ± 0.12,2.93 ± 0.11,3.02 ± 0.1,3.01 ± 0.095
TPRDRRKSVFAPLNFNP [SSN2],2.68 ± 0.066,2.57 ± 0.063,2.95 ± 0.081,2.86 ± 0.045
ITVVLGVNGYIWLRKTS [RRP4],1.61 ± 0.2,1.62 ± 0.12,1.34 ± 0.26,1.95 ± 0.11
ALNGIDINTVNTNLMNG [GRR1],3.29 ± 0.051,3.2 ± 0.052,3.08 ± 0.042,3.1 ± 0.045
GEKIDSNKPIFLFAPEL [SWI1],2.62 ± 0.1,2.54 ± 0.21,2.59 ± 0.21,2.91 ± 0.23
QINIMPSLKAHFTEIKL [SIR3],2.18 ± 0.056,2.1 ± 0.054,2.29 ± 0.057,2.4 ± 0.045
STVKVSDLNLTDRQKKL [YLR018C/POM34],2.9 ± 0.063,2.75 ± 0.048,2.79 ± 0.047,2.76 ± 0.037
HKDIPEEDFYTVVGNAS [DSN1],2.94 ± 0.091,2.91 ± 0.18,2.73 ± 0.1,3.19 ± 0.062
SVVLTLQAFGESESTTN [RPB3],2.42 ± 0.12,2.51 ± 0.088,1.67 ± 0.11,1.18 ± 0.052
